The results in this text go back to publication PMC8276246, “Unlimited Cooperativity of Betatectivirus SSB, a Novel DNA Binding Protein Related to an Atypical Group of SSBs From Protein-Primed Replicating Bacterial Viruses”.

Some results are limits rather than exact numbers.

For series [1], the system named is B35SSB (Bacillus phage Bam35 (betatectivirus)). Description: EMSA. The following applies: EMSA: 50 mM Tris-HCl pH 7.5, 50 mM NaCl, 1 mM DTT, 4% glycerol, 0.1 mg/ml BSA, 0.05% Tween 20, 1 mM EDTA, 10 min at 4 C, 2 nM labeled probe. For orientation: In EMSA bound probe runs differently from free probe, usually more slowly.
In another series the target is EcoSSB (Escherichia coli, UniProt P0AGE0 1-178). Description: EMSA; 1 uM protein; EMSA: 50 mM Tris-HCl pH 7.5, 50 mM NaCl, 1 mM DTT, 4% glycerol, 0.1 mg/ml BSA, 0.05% Tween 20, 1 mM EDTA, 10 min at 4 C; 2 nM labeled probe. Conditions: chain copies: 4; label: 5' 32P.
The target of series [2] is T1, Φ29 terminal protein (Φ29TP) (Bacillus phage Φ29, UniProt P03681 1-266).
T1 sequence: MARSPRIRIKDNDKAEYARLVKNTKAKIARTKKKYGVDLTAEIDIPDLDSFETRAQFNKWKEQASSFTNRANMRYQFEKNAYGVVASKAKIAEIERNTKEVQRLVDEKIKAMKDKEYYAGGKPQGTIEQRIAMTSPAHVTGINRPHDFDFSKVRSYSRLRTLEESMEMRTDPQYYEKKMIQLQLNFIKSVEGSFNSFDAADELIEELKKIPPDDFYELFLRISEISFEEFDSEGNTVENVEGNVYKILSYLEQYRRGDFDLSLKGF
Kind of series: EMSA; 20 nM protein; EMSA: 50 mM Tris-HCl pH 7.5, 50 mM NaCl, 1 mM DTT, 4% glycerol, 0.1 mg/ml BSA, 0.05% Tween 20, 1 mM EDTA, 10 min at 4 C; 2 nM labeled probe. Conditions: label: 5' 32P on strand 1; blunt.

EcoSSB, sequence (P0AGE0 whole entry): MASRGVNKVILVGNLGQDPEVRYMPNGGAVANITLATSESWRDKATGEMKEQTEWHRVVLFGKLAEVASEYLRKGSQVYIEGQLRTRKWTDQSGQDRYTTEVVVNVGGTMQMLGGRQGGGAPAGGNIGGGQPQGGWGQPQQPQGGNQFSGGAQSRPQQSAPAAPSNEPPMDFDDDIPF

“ACTGGCCGTCGTTCTATTGTACTCACTGTGATC [33-mer]”: the binding signal in series [1] (500 nM protein (25% bound at 250 nM)) was 50 % bound.
The molecule “GAAAAUAAAAAUAAACUGGACAAUUAAGGAUCCUGUACAAGUCGACGCGG [RNA-50mer]” registered a binding signal in series [1] (5 uM protein) of 10 % bound.
Take GATCACAGTGAGTAC [15-mer]: the binding signal in series [1] (1 uM protein, minor smear) is below 10 % bound.
Molecule “GGCCCATATGTACCCATACGACGTCCCAGACTACGCTGGGACGGGGAGCGGGGCCAGTAAACTACTGACTGCGCAAGAGG [80-mer]” returned a binding signal in series [1] (250 nM protein) of 70 % bound.
Turning to GAAAATAAAAATAAACTGGACAATTAAGGATCCTGTACAAGTCGACGCGG (ssDNA) [50-mer], the binding result in the series with EcoSSB is reported as “binds”.

B1: 50-mer dsDNA (dsDNA)
DNA 1: GAAAATAAAAATAAACTGGACAATTAAGGATCCTGTACAAGTCGACGCGG
DNA 2: CCGCGTCGACTTGTACAGGATCCTTAATTGTCCAGTTTATTTTTATTTTC
Consider B1, for which the binding result in series [2] is on record as “binds”.
With GAAAAUAAAAAUAAACUGGACAAUUAAGGAUCCUGUACAAGUCGACGCGG (ssRNA) [RNA-50mer], in the series with EcoSSB, the binding result is “binds”.
